Test results as given in article PMC12477886.

Target: SARS-CoV-2 WA1/2020 S2 protein (stabilized prefusion spike S2 trimer) (SARS-CoV-2 (USA-WA1/2020)) (UniProt P0DTC2)
Assay: cryo-EM structure

Substance: SARS-CoV-2 WA1/2020 S2 protein (stabilized prefusion spike S2 trimer) (from UniProt P0DTC2) (domain or fragment)
- stoichiometry N: 3
